The subject of one test is mucins of 4% HBE mucus. Briefly: mucin molecular weight by GPC-MALLS. It counts as biochemical, human. The note with it: all three concentrations (0.01, 0.1, 1.0 mM), 1 hr at 37° C.; untreated 180 MDa. From the text: Mucus Preparation: Aseptic mucus was harvested from over 100 individual HBE cultures from 20 different CF donors and prepared to four weight-percent (4%) solids, a concentration that typifies chronic obstructive pulmonary disease (COPD) and mild CF (Hill, D. B. et al., 2014, A biophysical basis for mucus solids concentration as a candidate biomarker for airways disease, PloS one 9, e87681; Anderson, W. H. et al., 2015, The relationship of mucus concentration (hydration) to mucus osmotic pressure and transport in chronic bronchitis., Am J Resp Crit Care Med 192: 182-90). […] Creep recovery experiments were performed in which a known stress (between 0.05 and ˜100 Pa) was applied to treated or control mucus for 10 seconds, and the rheological recovery of the fluid was recorded for an additional 50 seconds. […] From the measured parameters the viscosity and elasticity of the fluid were determined as a function of applied stress. […] Mucin molecular weight determination: Molecular weight reduction following test article treatment was determined using a combination of gel-permeation chromatography with multi-angle laser light scattering on a Wyatt Heleos MALLS system. […] Mucin MW was determined by fitting a Berry model to light scattering from 11 different angles using Wyatt Astra software. […]

For test [1], the system named is primary HBE cells from CF donors homozygous for F508del. Put plainly: μOCT of MCT rate and CBF in CF primary HBE cells. It counts as cell-based, human. From the text:
Primary human bronchial epithelial (HBE) cells were derived from lung explants from healthy failed donors and CF patients homozygous for F508del CFTR. […]
One-micron resolution spectral domain μOCT was used to obtain measurements of mucociliary transport (MCT) rate and ciliary beat frequency (CBF) in HBE monolayers and of MCT rate of sputum ex vivo. This first-in-kind, high-speed (40 frames per second, 512 lines per frame) microscopic reflectance imaging modality enables simultaneous anatomic imaging in cell cultures and intact tissues that readily distinguishes the properties of CF compared to normal epithelia (Liu L, Chu K K, Houser G H, Diephuis B J, Li Y, Wilsterman E J, Shastry S, Dierksen G, Birket S E, Mazur M, et al., 2013, Method for quantitative study of airway functional microanatomy using micro-optical coherence tomography, PLoS One 8(1):e54473; Tuggle K L, Birket S E, Cui X, Hong J, Warren J, Reid L, Chambers A, Ji D, Gamber K, Chu K K, et al., 2014, Characterization of defects in ion transport and tissue development in Cystic Fibrosis Transmembrane Conductance Regulator (CFTR)-knockout rats. […] Images were captured, and MCT rate and CBF calculated, as described in the preceding references.

From patent US20230071765A1, “COMPOSITIONS HAVING THIOREDOXIN ACTIVITY AND RELATED METHODS” (ORPRO THERAPEUTICS, INC., priority 2020, published 2023) come the findings set out here.

B1: ORP100S: thioredoxin with monothiol active site, Cys35 and non-active Cys 62, 69 and 73 substituted with serine (SEQ ID NO:29) (protein)
chain: MVKQIESKTAFQEALDAAGDKLVVVDFSATWCGPSKMIKPFFHSLSEKYSNVIFLEVDVDDSQDVASESEVKSMPTFQFFKKGQKVGEFSGANKEKLEATINELV
modifications: synthetic peptide motif
B1: the “molecular weight of mucins” value in the test with mucins of 4% HBE mucus was “ca. 150 MDa”. The CBF entry in test [1] (3 hrs post treatment) is “no meaningful differences”. Besides, in test [1] (3 hrs post-treatment, ORP100S 1-3 mM, DTT 1.6 mM, PBS 7.30±2.9, mean±SE), the MCT rate was 54.73±15.3 mm/min.
